This note sets out measurements from article PMC5900715 (Genes & Development, 2018).

The test addresses MDM2 NTD polypeptide (residues 10–139) (UniProt Q00987 10-139). Nature of the test: fluorescence polarisation.

Ends that are not written are not given here.

Take fluorescein-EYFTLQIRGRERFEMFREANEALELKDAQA (also: dimeric) [dimeric mutant p53 OD peptide (L344A, residues 326–355)]: the binding result is reported as “binds”. Consider fluorescein-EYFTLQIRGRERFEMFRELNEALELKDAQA [wild-type p53 OD peptide (residues 326–355)], for which the binding result is reported as “binds”.
